Test results as given in the supplement of paper PMC11780869.

System: Bacillus subtilis
Experiment: cleaved RNA product abundance (RNA/gDNA barcode ratio) relative to median wild-type variant (ratio to wild type); higher = more accumulation of the downstream cleavage product
Conditions: cleavage site: cggR-gapA (positions -7 to +36 mutated)
Procedure, shortened: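 Cleaved product abundance for each construct is its RNA-to-gDNA barcode ratio, scaled to the median construct carrying the unmutated site. Cleaved RNA was isolated on a gel, reverse transcribed and barcode-sequenced, with genomic DNA barcodes sequenced alongside and UMIs collapsed. The reporters were truncated aprE or tetM mRNAs with barcoded, mutagenized RNase Y cleavage-site windows integrated into the B. subtilis chromosome, and cultures grew in LB at 37°C from OD600 0.0003 to 0.3.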

[1] = experiment (reporter, strain, medium): exp 4a: truncated aprE reporter, strain BJT201 with 2% xylose (RNase J1 expressed)
[2] = experiment (reporter, strain, medium): exp 2b: truncated aprE reporter, strain BJT200
[3] = experiment (reporter, strain, medium): exp 6: tetM reporter, strain 168

Sequence | cleaved RNA product abundance [1] | cleaved RNA product abundance [2] | cleaved RNA product abundance [3]
ACAGACGAAGGAGCCGCAAAGAAGTTATTAAGGGATGAAAAATCCCCCAATATAAATATCTCTCACTTATTTAAA | 0.184 | – | –
ACAGACGAAGGAGCCGCAAAGAAGTTATTAAGGGATGAAAAATCCCTAAATATAAATATCTCTCACTTATTTAAA | 0.445 | 0.499 | –
ACAGACGAAGGAGCCGCAAAGAAGTTATTAAGGGATGAAAAATCCCTCAAAATAAATATCTCTCACTTATTTAAA | 0.333 | – | –
ACAGACGAAGGAGCCGCAAAGAAGTTATTAAGGGATGAAAAATCCCTCAAGATAAATATCTCTCACTTATTTAAA | 0.314 | 0.159 | –
ACAGACGAAGGAGCCGCAAAGAAGTTATTAAGGGATGAAAAATCCCTCAATAAAAATATCTCTCACTTATTTAAA | 0.217 | – | –
ACAGACGAAGGAGCCGCAAAGAAGTTATTAAGGGATGAAAAATCCCTCAATAGAAATATCTCTCACTTATTTAAA | 0.192 | – | –
ACAGACGAAGGAGCCGCAAAGAAGTTATTAAGGGATGAAAAATCCCTCAATATAAAAATCTCTCACTTATTTAAA | 0.692 | 0.798 | –
ACAGACGAAGGAGCCGCAAAGAAGTTATTAAGGGATGAAAAATCCCTCAATATAAACATCTCTCACTTATTTAAA | 0.772 | – | –
ACAGACGAAGGAGCCGCAAAGAAGTTATTAAGGGATGAAAAATCCCTCAATATAAATAACTCTCACTTATTTAAA | 0.632 | – | –
ACAGACGAAGGAGCCGCAAAGAAGTTATTAAGGGATGAAAAATCCCTCAATATAAATAGCTCTCACTTATTTAAA | 0.554 | – | –
ACAGACGAAGGAGCCGCAAAGAAGTTATTAAGGGATGAAAAATCCCTCAATATAAATATCTCTCACTTATTTAAA | 0.781 | 0.78 | 0.985
ACAGACGAAGGAGCCGCAAAGAAGTTATTAAGGGATGAAAAATCCCTCAATATAAATGTCTCTCACTTATTTAAA | 0.622 | 0.304 | –
ACAGACGAAGGAGCCGCAAAGAAGTTATTAAGGGATGAAAAATCCCTCAATATAATTATCTCTCACTTATTTAAA | 0.171 | – | –
ACAGACGAAGGAGCCGCAAAGAAGTTATTAAGGGATGAAAAATCCCTCAATATAGATATCTCTCACTTATTTAAA | – | 0.277 | –
ACAGACGAAGGAGCCGCAAAGAAGTTATTAAGGGATGAAAAATCCCTCAATATCAATATCTCTCACTTATTTAAA | 0.0918 | – | –
ACAGACGAAGGAGCCGCAAAGAAGTTATTAAGGGATGAAAAATCCCTCAATATGAATATCTCTCACTTATTTAAA | 0.151 | – | –
ACAGACGAAGGAGCCGCAAAGAAGTTATTAAGGGATGAAAAATCCCTCAATATTAATATCTCTCACTTATTTAAA | 0.157 | 0.199 | –
ACAGACGAAGGAGCCGCAAAGAAGTTATTAAGGGATGAAAAATCCCTCAATTTAAATATCTCTCACTTATTTAAA | – | 0.2 | –
ACAGACGAAGGAGCCGCAAAGAAGTTATTAAGGGATGAAAAATCCCTCACTATAAATATCTCTCACTTATTTAAA | – | 0.161 | –
ACAGACGAAGGAGCCGCAAAGAAGTTATTAAGGGATGAAAAATCCCTCAGTATAAATATCTCTCACTTATTTAAA | 0.224 | – | –
ACAGACGAAGGAGCCGCAAAGAAGTTATTAAGGGATGAAAAATCCCTCATTATAAATATCTCTCACTTATTTAAA | 0.331 | 0.226 | –

Sequence | cleaved RNA product abundance [1] | cleaved RNA product abundance [2] | cleaved RNA product abundance [3]
ACAGACGAAGGAGCCGCAAAGAAGTTATTAAGGGATGAAAAATCCCTCTATATAAATATCTCTCACTTATTTAAA | 0.535 | – | –
ACAGACGAAGGAGCCGCAAAGAAGTTATTAAGGGATGAAAAATCCGTCAATATAAATATCTCTCACTTATTTAAA | 0.355 | – | –
ACAGACGAAGGAGCCGCAAAGAAGTTATTAAGGGATGAAAAATCCTTCAATATAAATATCTCTCACTTATTTAAA | 0.505 | 0.355 | –
ACAGACGAAGGAGCCGCAAAGAAGTTATTAAGGGATGAAAAATCGCTCAATATAAATATCTCTCACTTATTTAAA | 0.0823 | – | –
ACAGACGAAGGAGCCGCAAAGAAGTTATTAAGGGATGAAAAATCTCTCAATATAAATATCTCTCACTTATTTAAA | 0.506 | – | –
ACAGACGAAGGAGCCGCAAAGAAGTTATTAAGGGATGAAAAATTCCTCAATATAAATATCTCTCACTTATTTAAA | 0.327 | 0.274 | –
ACAGACGAAGGAGCCGCAAAGAAGTTATTAAGGGATGAAAACTCCCTCAATATAAATATCTCTCACTTATTTAAA | – | 0.816 | –
ACAGACGAAGGAGCCGCAAAGAAGTTATTAAGGGATGAAATATCCCTCAATATAAATATCTCTCACTTATTTAAA | 0.586 | – | –
ACAGACGAAGGAGCCGCAAAGAAGTTATTAAGGGATGAACAATACCTCAATATAAATATCTCTCACTTATTTAAA | 0.229 | – | –
ACAGACGAAGGAGCCGCAAAGAAGTTATTAAGGGATGAACAATCACTCAATATAAATATCTCTCACTTATTTAAA | 0.105 | – | –
ACAGACGAAGGAGCCGCAAAGAAGTTATTAAGGGATGAACAATCCCACAATATAAATATCTCTCACTTATTTAAA | 0.364 | – | –
ACAGACGAAGGAGCCGCAAAGAAGTTATTAAGGGATGAACAATCCCTAAATATAAATATCTCTCACTTATTTAAA | 0.62 | 0.33 | –
ACAGACGAAGGAGCCGCAAAGAAGTTATTAAGGGATGAACAATCCCTCAACATAAATATCTCTCACTTATTTAAA | 0.265 | – | –
ACAGACGAAGGAGCCGCAAAGAAGTTATTAAGGGATGAACAATCCCTCAATAAAAATATCTCTCACTTATTTAAA | 0.151 | – | –
ACAGACGAAGGAGCCGCAAAGAAGTTATTAAGGGATGAACAATCCCTCAATATAAATATCTCTCACTTATTTAAA | 0.864 | 0.842 | 0.875
ACAGACGAAGGAGCCGCAAAGAAGTTATTAAGGGATGAACAATCCCTCAATATATATATCTCTCACTTATTTAAA | 0.441 | – | –
ACAGACGAAGGAGCCGCAAAGAAGTTATTAAGGGATGAACAATCCCTCAATATTAATATCTCTCACTTATTTAAA | 0.189 | – | –
ACAGACGAAGGAGCCGCAAAGAAGTTATTAAGGGATGAACAATCCCTCACTATAAATATCTCTCACTTATTTAAA | 0.331 | – | –
ACAGACGAAGGAGCCGCAAAGAAGTTATTAAGGGATGAACAATCCCTCATTATAAATATCTCTCACTTATTTAAA | 0.321 | 0.22 | –
ACAGACGAAGGAGCCGCAAAGAAGTTATTAAGGGATGAACAATCCCTCGATATAAATATCTCTCACTTATTTAAA | 0.554 | – | –
ACAGACGAAGGAGCCGCAAAGAAGTTATTAAGGGATGAACAATCCGTCAATATAAATATCTCTCACTTATTTAAA | 0.109 | – | –

Sequence | cleaved RNA product abundance [1] | cleaved RNA product abundance [2] | cleaved RNA product abundance [3]
ACAGACGAAGGAGCCGCAAAGAAGTTATTAAGGGATGAACAATCCTTCAATATAAATATCTCTCACTTATTTAAA | 0.58 | – | –
ACAGACGAAGGAGCCGCAAAGAAGTTATTAAGGGATGAACAATCGCTCAATATAAATATCTCTCACTTATTTAAA | 0.104 | – | –
ACAGACGAAGGAGCCGCAAAGAAGTTATTAAGGGATGAACAATGCCTCAATATAAATATCTCTCACTTATTTAAA | 0.136 | – | –
ACAGACGAAGGAGCCGCAAAGAAGTTATTAAGGGATGAACAATTCCTCAATATAAATATCTCTCACTTATTTAAA | 0.44 | – | –
ACAGACGAAGGAGCCGCAAAGAAGTTATTAAGGGATGAACATTCCCTCAATATAAATATCTCTCACTTATTTAAA | 0.633 | – | –
ACAGACGAAGGAGCCGCAAAGAAGTTATTAAGGGATGAACTATCCCTCAATATAAATATCTCTCACTTATTTAAA | 0.794 | – | –
ACAGACGAAGGAGCCGCAAAGAAGTTATTAAGGGATGAAGAAGCCCTCAATATAAATATCTCTCACTTATTTAAA | 0.549 | – | –
ACAGACGAAGGAGCCGCAAAGAAGTTATTAAGGGATGAAGAATACCTCAATATAAATATCTCTCACTTATTTAAA | 0.106 | – | –
ACAGACGAAGGAGCCGCAAAGAAGTTATTAAGGGATGAAGAATCCATCAATATAAATATCTCTCACTTATTTAAA | – | 0.124 | –
ACAGACGAAGGAGCCGCAAAGAAGTTATTAAGGGATGAAGAATCCCCCAATATAAATATCTCTCACTTATTTAAA | 0.183 | – | –
ACAGACGAAGGAGCCGCAAAGAAGTTATTAAGGGATGAAGAATCCCTAAATATAAATATCTCTCACTTATTTAAA | 0.44 | – | –
ACAGACGAAGGAGCCGCAAAGAAGTTATTAAGGGATGAAGAATCCCTCAATATAAATATCTCTCACTTATTTAAA | 0.658 | 0.653 | 0.732
ACAGACGAAGGAGCCGCAAAGAAGTTATTAAGGGATGAAGAATCCCTCAATATCAATATCTCTCACTTATTTAAA | 0.0586 | – | –
ACAGACGAAGGAGCCGCAAAGAAGTTATTAAGGGATGAAGAATCCCTCCATATAAATATCTCTCACTTATTTAAA | 0.273 | – | –
ACAGACGAAGGAGCCGCAAAGAAGTTATTAAGGGATGAAGAATCCTTCAATATAAATATCTCTCACTTATTTAAA | 0.405 | 0.265 | –
ACAGACGAAGGAGCCGCAAAGAAGTTATTAAGGGATGAAGAATTCCTCAATATAAATATCTCTCACTTATTTAAA | 0.29 | – | –
ACAGACGAAGGAGCCGCAAAGAAGTTATTAAGGGATGAAGATTCCCTCAATATAAATATCTCTCACTTATTTAAA | 0.68 | – | –
ACAGACGAAGGAGCCGCAAAGAAGTTATTAAGGGATGAAGCATCCCTCAATATAAATATCTCTCACTTATTTAAA | 0.748 | – | –
ACAGACGAAGGAGCCGCAAAGAAGTTATTAAGGGATGAATAAAACCTCAATATAAATATCTCTCACTTATTTAAA | 0.125 | 0.119 | –
